Measurements reported in the DeepSol protein solubility set.

experiment: soluble on expression in E. coli; label from the status in PepcDB or PDB records

| Sequence | soluble on expression in E. coli |
| --- | --- |
| MGSDKIHHHHHHMSQQASLPDDDNWLLEDTDGDEAGRPSEVRKPWKVLIVDDEKDVHTATRIALRGISYKERPLELLSAYSGAEAFQMLQQHADIALIMLDVVMESEDAGLRLVHRIREELDNGVVRIVLRTGQPGQAPEQEVILNYDINDYKTKTELTTQKLFTTTIASLRAYENLVSLEKNRQGLAKILESASDLYQLHSLREFASGVLRQISALLDIGTDGILCVRNDNLVGRPELEILAVSGAYEYLAESGDLSNEPHLAAVFQQVFKEKRSIYQHPYDVLYISSRNRREFAVHFMPQWPLDSVERDLLDVFCQRISAAYDNLYLYNQLRSAQEATVVALADLAEFRDTDTGDHVLRVQKLTDAIAEEMVSHNHYPELMTHEFMDMVGMASILHDIGKVATPDHILLKPGKLDPEERAIMEQHATIGAQILAKSAQLVEGASYLSLGSEIAGGHHEHFDGNGYPGKLQGQAIPLSARIVAVVDVFDALLNKRPYKEPWSMEDTMKYINGRSGTQFDPHVVAALSRLVSEDRLPVQFGD | not soluble |
| MVLLHHQPLGSHHATTSGGSLLERADLSHPIPENARKLAQLVEYDESRVELGTHSVFVREARPPGAHYSKATVIFLHGQSFSSSTWTENNLLRTFAALGYRAIAIDLPGSGQTRGAAIPQAEKPNFLMDFIETLGLKQVMIVCASMAAQYVLPLMTSTRHLSCVVLVAPSNTHEVVSPSSYTVPTLVVWGERDTSLGPTAAANLKNLPQVKLQKIPDAGHACYLHNPKCFENLCVNFFDLIRSYHH | not soluble |
| MIPVERHQQILALIAERGAVSINELTERLGVSHMTVRRDVQKLEQDGLLLSVSGGVRSPERLATEPSHQDKSVMFSQQKAAMGKLAAQHIPLNSCIYLDAGTTTLSLARELAERDDLLIVTNDFAIAAFLIESSQCRMIHTGGTLCRENQSCIGEAVAQALRNLFIDIAFISASSWSLRGLSTPNEDKVVVKRAAVEASRKRVLLCDTSKYGRIATHLATPLDVFDSIITDDGLPVAAKEALSKMGVEVLVAG | not soluble |
| MSNSSKDADSNLKSTVKPRYLILGSGSIGFALAKELRESNKLVIIVDKDEAKIETLREEGFEAILGDISDPELVNNIDLKNVVAILFLSSNNEANRKGIENFKKVVNPDIQIFSRASDIINKEKMEDLGSDYVFMPSKLVASSLSRSLERAESVHRGNRLARWLKGIRDKKLAIVIHDNPDPDAISSGLALKEIAKSLGVEASILYHGRIGHQENKAFVNLLGIDLGKMEEHDLKDFDEIALIDCSIPGVNNMVPPNSYVGIVIDHHPPGETEIKAEYIDIRPNFGATATIMTKYLQQLNINISKTLATALLYGIRTDTQDFKRKTDPADLSAASYLYPLSNHGILDQLEQPSMAIETLEVLGEAIRNRQVLGSYLLSNVGNIRDRDTLPQAADYLLSLEGISTTVVFGVSEDRIYISGRSTDIRVNLGEIMRQAFGEDAGGHANAAGAQIPLGVFSATKDRQTLLRLVNEAVVKRFLSAVGVESTGE | soluble |
| MIWNETIECMDRESLRKIQSIRLKKIVDYVYHNTPFYRKKMQEMGITPDDINTIDDIVKLPFTTKHDLRDNYPFGLCAVPMSQIVRIHASSGTTGKPTVVGYTRKDLSSWAECISRAFTAYGAGRSDIFQVSYGYGLFTGGLGAHAGAENIGASVIPMSSGNTEKQITLMHDFGSTVLCCTPSYALYLADAIKDSGYPREEFQLKVGALGAEPWTENMRHEIEEKLGIKAYDIYGLSEIAGPGVGYECECQHGTHLNEDHYFPEIIDPNTLQPVEPGQTGELVFTHLTKEGMPLLRYRTRDLTALHYDKCSCGRTLVRMDRILGRSDDMLIIRGVNVFPTQIESVILEMEEFEPHYLLIVGRENNTDTMELQVEVRPDFYSDEINRMLALKKKLASRLQSVLGLGVNVKLVEPRSIERSVGKAKRVIDNRKI | not soluble |
| MGSDKIHHHHHHMLIHQQYTRHGPDYRFGEQMTFLDVKQTFGFSHVRVGRWVTREESLIAANLVFDSLADLAFILHLPPLTLGLRQSLSLAFGHGGQKGVQAHYAPAARELALAKNAGAGALAHEFWHAFDHYVAPKAFQRVTGRFTCASDLWLADLPLIDHPLNQRLVEIFRVTLLSEDNLAPSDYVRRAIALDKRYGSQYFAKPTEMMARAFEACIESYQGIQNPYLVSGTRYSSLAKEGAYPDEPHRQRIFKALIAYFEPLGIALGKAG | not soluble |
| MGSDKIHHHHHHMSVEQTYSWLRKAGSIDDLAHYIIPLFSGAEKKNWKGILGHLQHHGMFKNIKEGIQTVSKLKEKGFYGHIQKEEQYLKNKWQGPDVPIVTLPVDERNRRIRLEFGSKSGLAFQDKMFLFLSSDLDFGSVSALMTHEYHHVCRLGHLTKEEKDVTLLDTIIMEGLAEYAVYERFGRSQTAEWTTWYTPEQLQALYEKKIAPHRDIKRDNRLFPQLLFGKGYQPKMLGYAVGFNIVKKYLTASKASTADGLSIPAETFLDAML | not soluble |
| MIRLQKFKQLTVWVMLGLLTSWIVSCSTDNVGTISKPVTSEVTKIEFWTMQLQPQFTNYFQSLITSFESQNPSIKVKWVDVPWSAMENKILTAVSAKTPPDVVNLNPDFASQLAGRNAWLDLDEKVPSEVSSSYLPNIWQASTLNGKTFGIPWYLTTRLTIYNTDLLKQAGITKPPATYTELAQEAQQIKDKTGKYAFFATFVPQDSGEVLESFVQMGVTLVNAEGKAAFNSPQGKAAFQYWVYLYKKGLLPKESLTQGHRHAIDLYQSGETAFLASGPEFLETISNNAPKISQASAIAPQITGDTGKKNVAVMNIVIPRASKQPDAAVKFALFVTNDENQLAFAKAANVLPSTVTALADSYFKEVPATATIAEKGRIISAQQMQTAEVLTPKMKDFKFLQKAIYENLQAAMLGQKTVDKALEDAAQQWNNR | not soluble |
| MKIDLPPLRQFLNRLLALTIRMQNVIFERFELLLSQQIETAIANGIFEAGVETLRAERFTIESCESVYTHPDTGSVTNYLKVEQVQRNNIRTAVEMLEFAAKYQGQLMVNQKSSNAAVSIPTHSIFDCDGGVVPRVLLVRPQKETRVPVEQLESSTWQQVSAEEFVTAWSREVDELPRFTTDYLHLVTGILLPIWKILPQKNSRVFRLQTSDGQKILGRVVHASDIQTVTEQLGLKNKLLSPAELEHHHHHH | not soluble |
| MEPNPSDPVLTDRIQAIVTTEKSIDEMMKCAREIIQDLGKEKQIGKNKMEDNANNFKKLITQVENELSAQMQYLSHVCVGSSHQGSTFGVLQNSLLAQSGLSSLHSELFQIVRYLDPTSDEPQTTEEDEEDGSDDLNEDGADGAPSSTVTSSTTDGSGGGDDAASSSAPRSQEESGRQMTDDDDDMEQ | not soluble |
| MGSDKIHHHHHHMLPMADQIQTLQEQVLQARSNGQKLNIVGGGTKSFMGRQGCAEAGTLSLAEHTGVVEYHPVELVLTVRAGTPLKEIEAVLAEQGQCLHFEPPHFGDASTIGGTLACNLSGPARPWAGSVRDQVLGIRLLNGKGEHLRFGGQVMKNVAGYDVSRLQAGAMGTLGVITEISLKVMPKPAATTTLVREMTMDEVVEYMNRRAGEPKPITGACWVDGKVYLRLAGAKSAVEATAEQWGGQVLADGEQFWRQVQDMQHPFFDDPELPLWRFSVDSTAKTPELDGPWMIDWAGSQRWYRGQASLDQLEPLARAAGGQVSLFRGGDRTGEVMHGQPQALKTIQQRVKKSFDPDAIFNPGRLYSWL | not soluble |
| MRLLVIIILVAFFLCTTAELMEKRSSMGGSAFGGIDRIPLSYLRKYYRQKTMKRDDNELLDFSPQNSQLGYRSISFWPLY | not soluble |
| MGTALAAPPLGGCAEGFEVHGGDEEGLPLPTQIDLYLVGLAPLPHHGSRQPVEPPVGHAPVWEGGVYDYSHLIAHPVLPKVGAEPGYAALLPHRLPQQPPSPVPIASRCLDQPTLPPVFCSAQLNLALAGCGWSFMLHPHHVELYTHSLPAEDLSEAWPGSPAITADQLLDVETPFRLQYALHQRRPLQGAAV | soluble |
| MASLWRAVIGGQNNNSEDYGGVEFWSNPERTGWLTKQGEYIKTWRRRWFVLKQGKLFWFKDSDVTRVSRPRGVVPVESCLTAKGAEDVLNKQNAFELSTRNETMYFIADSEKEKEDWINSIGRSIVQNSRSVTDSEIVDYDNKH | soluble |
| MGSDKIHHHHHHMQNPPPPFNQNHLLAALPPAELERLKPHLELVHMPLGDVLCESGGRLSYVYFPTSAIISLHYILENGSSSEVAGVGNEGLLGISLFMGGENTPTWATVQTAGYCYRLKGPLLLQEFNQGGPLQRVLLRYTQALITQISQTAVCNRHHTIEQQLCRWLLLTLDRLNSQELVMTQELIASMLGVRREGITEAAGKLQQAEIIRYRRGHITVLNRAGLEGHVCECYEVVKKEFERLFRDVKKS | not soluble |
| MGSDKIHHHHHHMETIERHFRCNEGSAADYAAQLREVGTVMLPAYVAFDAHELAHIDALQARLPEEPVTAGDAGDTHDIYVRRIMVDRAGERPQLVNRPHSEPILALLTDARRTRFFGDMFGANAEYFIRRCQINRMLKDSFIGLHLDAASNPDYEFSVVIQLGREFDGGEFVVHPEGRLPNVFAPTYGTVIVTSCMHRHEVRSVRANERTSLVYFYARHNGVNRRAN | not soluble |
| MTNDNSGIWVLGYGSLIYKPPSHYTHRIPAIIHGFARRFWQSSTDHRGTPANPGRVATLIPYEDIIRQTAFLKNVNLYSESAPIQDPDDLVTIGVVYYIPPEHAQEVREYLNVREQNGYTLHEVEVHLETNREHEAELGEALEQLPRHNKSGKRVLLTSVYIGTIDNEAFVGPETVDETAKVIAVSHGPSGSNYEYLAKLEQALAQMPIMKERGRITDHYLTALLETVNKYR | soluble |
| MGTGGITSNAHVVSPTWHHKHVPPMDDDSVLQRDIGELLSRWGGLQMAVKNQWGGHDSLKKSQELAHNLFHLISQSNGSIFFLLL | not soluble |
| MGSDKIHHHHHHMQDFLEFQSISKGYPGVQALSEVSFSVRKGAVHGLMGENGAGKSTLIRVLSGDQAADTGEIRINGEPQHYRSVRDAFNAGVIVIHQELQLVPELTVAENLWLGRFPGKAGVIDRRQLIRVVSDRLAEIGIDVDPEAKVASLSIGERQMVEIAKAVMTDARVIALDEPTSSLSSRESEILFALIDRLRSNGTVILYVSHRLDEIFRLCNSLTVLRDGRLAAHHPDISKVGREQIIAEMVGREISNIWGWRARTLGAARLTVERVSGANLPQPISFTVRAGEILGFFGLIGAGRSEMARLVYGADRRRQGKVLVDGLAVPADSPRLSIRAGVVLCPEDRKFDGIVQGRSIEENMAISSRRHFSPFGVVDKGKEAELAERFIAKLRVRTPSRHQDIVNLSGGNQQKVILGRWLSEEGVKVLLIDEPTRGIDVGAKSEIYEILYELAAQGMAIVVISSELPEVMGIADRILVMCEGRIAAEIDRSDFDEHRILAAALPDASATTATLPEQVS | not soluble |
| MRHPLISLLLLIAFYSTSSEAFVPKCNSFYVRWPRVRLNFKAVAEARLSLKGCQSACSLGEDPVSPGKQLECAAVNHQASPDGFSHLCAVFQPHQLQNVDGYVEADDRFTFYWKYCLPSTRKCSGEYAFTYLSDRYMDQKSVIKWTTKANLEECLSDCLDEKSFECRSISFNRTDGGCHMSKDSQISRPEAIRLNNNPNYRIDYYENNCYNLSESFTFKHECRDNGISVSVKSRLPYTGAIYGLYDFFTCRTEPKEATEFDHFFPYQTVSKNCSDSIKYKGNEMVLEVVLSTDGIEPLYFITPEDLTYQAKCPISGVKAKDPANTKSSAHLDNRNKAMEASAHALFELLSKTGDDEALQNTFPLPLTTTTEVISDVPTTTVQTSTTVPTTPSKTTATTTTTPKPTTTETATTSSSTTTVTTQKPTTVTSTTTLPSTTASTTTKTTTSTPTSPQTTTTHVGAPASSVASVAHDGSTLAGKPKVPVIFDIFHNGQPVEAVVVGTKISLSFRPHYPIPPEYVDVRGCQVEPIDPKYEWEHEPLFIIRDGCPADGVGLVCPPTHSEFGAKVSVEAFRYQTTGQVQYSCLVRICPFAPCPKNTCDDVEGCDSSYMHRYRRELSLEDIKKALEANPELASQFGISPSAFARNPSKSKNFTSVVEEQQRIALGGDYLVRRRLIVVNSEDQLRYYVRTGNI | not soluble |
| MAPPTTIRTRDQALAPLATLDSQTNCRLKELVQWECQFKGAEYVCSPFKRLFEHCIAPDKSATNYEVTDTYTNS | not soluble |
